Laboratory results published in US20060222645A1 (LEXICON PHARMACEUTICALS, published 2006).

Experiments:
[1] = target: T1, N-hANGPTL4 (human); test: ELISA, coated antigen 0.25 ug/ml, antibody 0 to 10 ug/ml
T1 construct: E. coli construct
T1 chain: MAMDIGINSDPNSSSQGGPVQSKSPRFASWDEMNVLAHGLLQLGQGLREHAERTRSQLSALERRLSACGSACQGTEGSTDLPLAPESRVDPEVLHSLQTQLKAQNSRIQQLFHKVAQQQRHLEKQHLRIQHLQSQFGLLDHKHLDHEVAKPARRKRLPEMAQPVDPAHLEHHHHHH
Method: (§1) Antibodies were screened for binding to mouse ANGPTL4 using ELISA. Ninety-six well Nunc Maxi-Sorp ImmunoPlates™ (Nunc #446612, Roskilde, Denmark) were coated by adding 50 μl per well of a 2.5 μg/ml solution of ANGPTL4 in coating buffer (BupH™ Carbonate-Bicarbonate Buffer, Pierce #28382, Rockford, Ill.) overnight at 4° C. Coating buffer was removed and the plate was blocked by adding 250 μl per well of blocking buffer (1% Blocker™ BSA, Pierce #37525, in PBS) for two hours at room temperature. 50 μl of hybridoma supernatant (undiluted or diluted in blocking buffer) or isolated anti-ANGPTL4 antibody (undiluted or diluted in blocking buffer) were added to the wells and incubated for at least one hour at room temperature. Wells were washed four times with PBS/Tween 20. 100 μl of diluted (1:5,000 to 1:10,000) HRP-conjugated goat anti-mouse IgG (Pierce #31446) were added to the wells and incubated for one hour at 37° C. Wells were washed six times with PBS/Tween 20. Anti-ANGPTL4 antibody was detected by adding 50 μl of TMB (tetramethyl benzidine) solution (ImmunoPure® TMB Substrate Kit, Pierce #34021) to the wells for 5 to 10 minutes. Plates were read spectrophotometrically at 450 nm using a microplate reader (Molecular Devices, Sunnyvale, Calif.).
(§2) The binding affinity of antibodies 90B4, 15F2, and 14D12 were determined for each of N-mANGPTL4 and N-hANGPTL4 by ELISA. N-hANGPTL4 was expressed and purified from bacteria as described above for N-mANGPTL4 in Example Q. A polynucleotide sequence encoding amino acids 24 to 175 of human ANGPTL4 was cloned into expression vector pET22b(+), which encodes an N-terminal pelB leader sequence and a C-terminal His tag. Following translation of the protein and removal of all but 11 amino acids of the pelB sequence, N-hANGPTL4 has the sequence shown in SEQ ID NO: 11. That sequence contains 11 amino acids from the pelB sequence, followed by amino acids 24 to 175 of human ANGPTL4 (underlined in Table 6), followed by a 2 amino acid linker and the His tag. ELISAs were performed as discussed above in Example K, except the plates were coated with 50 μl of 0.25 μg/ml of protein (N-mANGPTL4 or N-hANGPTL4) per well. Binding was measured at 0 μg/ml, 0.08 μg/ml, 0.4 μg/ml, 2 μg/ml, and 10 μg/ml antibody.

[2] = target: T2, N-mANGPTL4 (mouse); test: as above
T2 construct: E. coli construct; also called portion of the amino terminal domain of mouse ANGPTL4
T2 chain: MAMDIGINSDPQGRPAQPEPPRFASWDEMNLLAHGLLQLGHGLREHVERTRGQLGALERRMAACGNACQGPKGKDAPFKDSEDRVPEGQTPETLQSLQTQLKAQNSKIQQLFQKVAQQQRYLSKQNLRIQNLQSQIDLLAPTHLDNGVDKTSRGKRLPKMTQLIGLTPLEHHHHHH
Method: as §1, §2

[3] = target: T3, full-length human ANGPTL4 (human, UniProt Q9BY76 26-406); test: hybridoma screening ELISA, coated antigen 0.25 ug/ml
T3 construct: also called hANGPTL4
T3 sequence: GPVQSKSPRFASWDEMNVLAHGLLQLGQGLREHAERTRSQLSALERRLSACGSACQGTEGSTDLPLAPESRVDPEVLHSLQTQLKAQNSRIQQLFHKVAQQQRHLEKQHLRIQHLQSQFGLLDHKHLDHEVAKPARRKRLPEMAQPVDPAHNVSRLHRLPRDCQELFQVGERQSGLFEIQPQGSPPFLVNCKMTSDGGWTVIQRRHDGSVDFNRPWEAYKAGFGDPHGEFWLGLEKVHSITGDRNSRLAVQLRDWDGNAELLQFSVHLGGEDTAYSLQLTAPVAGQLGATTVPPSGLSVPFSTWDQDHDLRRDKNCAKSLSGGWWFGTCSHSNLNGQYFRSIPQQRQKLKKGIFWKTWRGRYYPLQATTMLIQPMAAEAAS

[4] = target: T4, His-SUMO-gs4 (mouse, UniProt Q9Z1P8 99-151); test: Western blot of in vitro translated fragments
T4 construct: Translated in vitro (RTS E. coli); also called gs4 fragment of mANGPTL4
T4 sequence: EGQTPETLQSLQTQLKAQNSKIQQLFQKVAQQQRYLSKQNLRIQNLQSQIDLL
Method: (§3) The in vitro translated protein fragments were separated on four SDS-PAGE gels, along with N-mANGPTL4, and transferred to four nitrocellulose blots. The blots were then blocked for 1 to 2 hours with TBS containing 5% nonfat dried milk (TBS-NFDM). After blocking, the blots were rinsed with TBS containing 0.5% Tween-20 (TBS-Tween) four times for five minutes each rinse. The blots were then incubated in TBS-NFDM containing tester antibody (14D12, 15F2, 90B4, or anti-His) overnight at 4° C. The blots were rinsed with TBS-Tween four times for five minutes each rinse and then incubated in TBS-NFDM containing a 1:6000 dilution of HRP-coupled goat anti-mouse antibody (Southern Biotechnology Associates) for 1 hour. The blots were rinsed with TBS-Tween four times for five minutes each rinse and then developed using SuperSignal West Pico Chemiluminescent Substrate (Pierce Biotechnology) as directed by the manufacturer. Alternatively, blots can be developed using the Western Breeze™ Immunodetection Kit (Invitrogen).
(§4) Antibody 14D12 bound only to N-mANGPTL4 in that experiment. […] That result may be due to the fact that 14D12 is a weaker binder than 15F2 and 90B4. See, e.g., Example S and FIG. 33. Antibody 15F2 bound His-SUMO-gs1. […] Antibody 90B4 bound to His-SUMO-gs2 and His-SUMO-gs4.

[5] = target: T5, His-SUMO-gs2 (mouse, UniProt Q9Z1P8 49-98); test: Western blot of in vitro translated fragments
T5 construct: Translated in vitro (RTS E. coli); also called gs-2 fragment of mANGPTL4
T5 chain: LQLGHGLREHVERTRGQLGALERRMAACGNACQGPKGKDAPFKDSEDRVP
Method: as §3, §4

[6] = target: T6, His-SUMO-gs1 (mouse, UniProt Q6TMA8 24-73 (rat entry)); test: Western blot of in vitro translated fragments
T6 construct: Translated in vitro (RTS E. coli); also called gs-1 fragment of mANGPTL4
T6 chain: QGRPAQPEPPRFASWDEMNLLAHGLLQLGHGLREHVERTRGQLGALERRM
Method: as §3, §4

[7] = target: T7, His-SUMO-gs5 (mouse, UniProt Q9Z1P8 124-180); test: Western blot of in vitro translated fragments
T7 construct: Translated in vitro (RTS E. coli); also called gs5 fragment of mANGPTL4
T7 sequence: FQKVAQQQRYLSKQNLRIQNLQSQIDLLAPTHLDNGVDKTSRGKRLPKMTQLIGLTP
Method: as §3, §4

[8] = target: T8, His-SUMO-gs3 (mouse, UniProt Q9Z1P8 74-123); test: Western blot of in vitro translated fragments
T8 construct: Translated in vitro (RTS E. coli); also called gs-3 fragment of mANGPTL4
T8 chain: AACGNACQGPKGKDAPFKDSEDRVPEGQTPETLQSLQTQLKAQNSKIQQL
Method: as §3, §4

[9] = target: T9, bovine LPL (bovine, UniProt P11151 29-478); test: cell-based or functional assay
T9 sequence (looked up): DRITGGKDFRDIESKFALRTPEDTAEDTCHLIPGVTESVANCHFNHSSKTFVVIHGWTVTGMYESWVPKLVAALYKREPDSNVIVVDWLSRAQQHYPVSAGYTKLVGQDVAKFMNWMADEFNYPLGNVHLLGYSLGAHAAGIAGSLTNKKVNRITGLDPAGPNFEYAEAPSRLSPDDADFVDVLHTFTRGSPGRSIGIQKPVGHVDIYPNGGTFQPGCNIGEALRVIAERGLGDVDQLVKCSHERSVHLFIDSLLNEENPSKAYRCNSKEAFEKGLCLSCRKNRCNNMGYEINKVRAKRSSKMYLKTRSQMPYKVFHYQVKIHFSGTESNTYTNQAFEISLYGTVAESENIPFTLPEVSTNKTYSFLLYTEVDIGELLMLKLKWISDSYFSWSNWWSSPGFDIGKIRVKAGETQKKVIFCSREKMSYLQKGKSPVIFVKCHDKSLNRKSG

B1: monoclonal antibody 90B4 (antibody, V domains shown)
VH: EVQLQQSGPELMKPGASVKMSCRTSGYTFTDYSIHWVKQSHGKRLEWIGYINPYNGDTYCDQNFKGKATLTFNKASSTAYMEIPRLTSDDSAVYYCTRWKTIQAPFAYWGQGTLVTVSA
VL: EIQMTQSPSSMSASLGDRITITCQATQDIVKNLNWYQQKPGKPPSFLIHYATELAEGVPSRFSGSGSGSDYSLTISNLESEDFADYYCLQSYDFPYTFGGGTKLEIN
[1]
  binding result: binds
[2]
  binding result: binds
[3]
  binding result: binds
[4]
  binding result: binds
[5]
  binding result: binds

B2: monoclonal antibody 15F2 (antibody, V domains shown)
VH: EVKLVESGGGLVKPGGSLKLSCAASGFAFSRYDMSWVRQTPEKRLEWVATISTDGSYTYYPDSVKGRFTISRDNARNTLYLQMGSLRSEDTALYFCVRHEQSTIVPHYPLDYWGQGTSVTVSS
VL: EIQMTQSPSSMSASLGDRITITCQATQDIVKNLNWYQQKPGKPPSFLIHYATELAEGVPSRFSGSGSGSDYSLTISNLESEDFADYYCLQSYDFPYTFGGGTKLEINR
[1]
  binding result: binds
[2]
  binding result: binds
[6]
  binding result: binds

B3: monoclonal antibody 14D12 (antibody, V domains shown)
VH: EVKLVESGGGLVKPGGSLKLSCAASGFAFSRYDMSWVRQTPEKRLEWVATISTGGSYTYYPDSVKGRFTISRDNARNTLYLQMGSLRSEDTALYFCVRHEQSTVVPHYPLDYWGQGTSVTVSS
VL: DIVMTQSPATLSVTPGDRVSLSCRASQSIGDYLHWYQQKSHESPRLLIKYASQSISGIPSRFSGSGSGSDFTLSIDSVEPEDVGVYYCQNGHSFPFTFGSGTKLEIKR
[1]
  binding result: binds
[2]
  binding result: binds
[4]
  binding result: no binding
[7]
  binding result: no binding
[8]
  binding result: no binding
[6]
  binding result: no binding
[5]
  binding result: no binding

B4: full-length mouse ANGPTL4 (ligand)
chain: QGRPAQPEPPRFASWDEMNLLAHGLLQLGHGLREHVERTRGQLGALERRMAACGNACQGPKGKDAPFKDSEDRVPEGQTPETLQSLQTQLKAQNSKIQQLFQKVAQQQRYLSKQNLRIQNLQSQIDLLAPTHLDNGVDKTSRGKKLSKMTQLIGLTSNATHLHRPARDCQELFQEGERHSGLFQIQPLGSPPFLVNCEMTSDGGWTVIQRRLNGSVDFNQSWEAYKDGFGDPQGEFWLGLEKMHSITGDRGSQLAVQLQDWDGNAKLLQFPIHLGGEDTAYSLQLTEPTANELGATNVSPNGLSLPFSTWDQDHDLRGDLNCAKSLSGGWWFGTCSHSNLNGQYFHSIPRQRQERKKGIFWKTWKGRYYPLQATTLLIQPMEATAAS
[9]
  IC50 (concentration required for 50% inhibition) of LPL activity, release of 3H-oleic acid: ~25 nM
